In paper PMC7181697:

Assays:
[1] = molecular target: REV7^Y63A-SHLD3(1–82) (human) (UniProt Q9UI95); test: ITC; method not named in the sentence (Supplementary Fig. 7e, f); ITC is the only method for affinities that the methods describe
[2] = molecular target: REV7^W171A-SHLD3(1–82) (human) (UniProt Q9UI95); test: as above
Sequence of REV7^W171A-SHLD3(1–82) (human) (Q9UI95 whole entry W171A, chain 1 of 2): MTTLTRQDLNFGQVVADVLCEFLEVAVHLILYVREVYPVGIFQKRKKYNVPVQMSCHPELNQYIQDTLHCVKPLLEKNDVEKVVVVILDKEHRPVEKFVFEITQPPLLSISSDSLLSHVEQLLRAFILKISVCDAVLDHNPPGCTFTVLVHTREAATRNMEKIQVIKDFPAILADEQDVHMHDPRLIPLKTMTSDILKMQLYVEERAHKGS
Sequence of REV7^W171A-SHLD3(1–82) (human) (Q6ZNX1 1-82, chain 2 of 2, further chain): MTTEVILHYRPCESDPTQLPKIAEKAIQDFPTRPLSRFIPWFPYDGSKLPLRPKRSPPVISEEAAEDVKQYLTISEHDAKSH

Sequence of REV7^Y63A-SHLD3(1–82) (human) (Q9UI95 whole entry Y63A, chain 1 of 2): as the sequence (Q9UI95 whole entry W171A, chain 1 of 2) above, with Y63A, A171W counted along it
Sequence of REV7^Y63A-SHLD3(1–82) (human) (Q6ZNX1 1-82, chain 2 of 2, further chain): as the sequence (Q6ZNX1 1-82, chain 2 of 2, further chain) above

B1: MBP-REV3(1847–2021) (domain or fragment)
chain: MLTPTPDSSPRSTSSPSQSKNGSFTPRTANILKPLMSPPSREEIMATLLDHDLSETIYQEPFCSNPSDVPEKPREIGGRLLMVETRLANDLAEFEGDFSLEGLRLWKTAFSAMTQNPRPGSPLRSGQGVVNKGSSNSPKMVEDKKIVIMPCKCAPSRQLVQVWLQAKEEYERSKK
Which results are given for B1?
Kd [1]: 37 µM; Kd [2]: 1.1 µM
